Data published in US5705334.

How the values were obtained:
HMG1 = assay: inhibition; conditions: cisplatin 1,2-d(GpG) intrastrand crosslink at a defined site; 1 uM protein; 20% at 0.5 uM; HeLa extract excinuclease, 30 C; EMSA also run at 1-8 uM but result not stated
[1] = test system: h-mtTFA (human mitochondrial transcription factor A) (Homo sapiens); assay: inhibition; conditions: 1 uM protein, HeLa extract excinuclease, 30 C

With “156 bp DNA with site-specific cisplatin 1,2-d(GpG) intrastrand adduct” the activity (% inhibition of repair) (HMG1) was 40 and the activity (% inhibition of repair) ([1]; cisplatin 1,2-d(GpG) intrastrand crosslink at a defined site, 95% at 0.5 uM, 8 mM MgCl2, 2 mM ATP) was 100.

“156 bp DNA with site-specific cisplatin 1,3-d(GpTpG) intrastrand adduct” gave an activity (% inhibition of repair) ([1]; cisplatin 1,3-d(GpTpG) intrastrand crosslink at a defined site, 40% at 0.5 uM) of 75.
